Assay results as given in article PMC11142921, “Antibody discovery identifies regulatory mechanisms of protein arginine deiminase 4” (Nature Chemical Biology, 2024).

How the values were obtained:
[1] = target: T1, human protein arginine deiminase 4 (hPAD4), wild type (human, UniProt Q9UM07, biotin on the N-terminal AviTag); assay: negative-stain EM; hPAD4 incubated with Fab fragments in equimolar amounts; 2D micrographs; uranyl formate stain; conditions: both partners purified
T1 construct: Protein arginine deiminase 4, human; 'full length hPAD4 (74 kDa)'; PreScission or TEV site between the tags and PAD4; Tags were captured on streptavidin in BLI and ELISA; In solution it is in a dimer-monomer equilibrium; also called hPADI4; WT hPAD4; source: BirA-expressing E. coli (C43 (DE3) Pro+ or BL21 Gold (DE3)), purified (Ni-NTA, 0.5 mM TCEP); not shown: AviTag, N-terminal, kept
T1 sequence (Q9UM07 whole entry, the tested form may be a part): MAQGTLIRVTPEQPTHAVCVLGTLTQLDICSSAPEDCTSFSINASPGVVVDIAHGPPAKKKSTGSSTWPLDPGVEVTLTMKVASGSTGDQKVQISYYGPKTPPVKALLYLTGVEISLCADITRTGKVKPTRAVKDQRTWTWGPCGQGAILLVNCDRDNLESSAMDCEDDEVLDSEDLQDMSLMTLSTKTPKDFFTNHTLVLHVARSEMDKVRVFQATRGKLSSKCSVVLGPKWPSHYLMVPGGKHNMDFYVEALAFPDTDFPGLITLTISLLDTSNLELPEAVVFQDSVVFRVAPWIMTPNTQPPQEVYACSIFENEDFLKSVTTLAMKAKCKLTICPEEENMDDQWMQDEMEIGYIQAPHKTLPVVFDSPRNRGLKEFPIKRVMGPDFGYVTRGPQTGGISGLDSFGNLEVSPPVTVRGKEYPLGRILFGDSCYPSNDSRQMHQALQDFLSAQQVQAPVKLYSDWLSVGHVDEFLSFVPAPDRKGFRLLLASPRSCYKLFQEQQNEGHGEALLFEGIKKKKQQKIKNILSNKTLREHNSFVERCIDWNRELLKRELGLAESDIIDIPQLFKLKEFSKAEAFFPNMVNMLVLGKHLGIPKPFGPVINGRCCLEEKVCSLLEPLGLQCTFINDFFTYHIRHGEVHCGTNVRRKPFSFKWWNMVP

[2] = target: T2, mouse protein arginine deiminase 4 (mPAD4) (Mus musculus, UniProt Q9Z183, biotin on the N-terminal AviTag); assay: BLI; Octet RED384; biotinylated mPAD4 on streptavidin biosensors, antibody as analyte; TBSTB; 10 mM Ca2+; conditions: both partners purified
T2 construct: Protein arginine deiminase 4, mouse; PreScission or TEV site between the tags and PAD4; also called murine PAD4; source: BirA-expressing E. coli (C43 (DE3) Pro+ or BL21 Gold (DE3)), purified (Ni-NTA, 0.5 mM TCEP); not shown: AviTag, N-terminal, kept
T2 sequence (Q9Z183 whole entry): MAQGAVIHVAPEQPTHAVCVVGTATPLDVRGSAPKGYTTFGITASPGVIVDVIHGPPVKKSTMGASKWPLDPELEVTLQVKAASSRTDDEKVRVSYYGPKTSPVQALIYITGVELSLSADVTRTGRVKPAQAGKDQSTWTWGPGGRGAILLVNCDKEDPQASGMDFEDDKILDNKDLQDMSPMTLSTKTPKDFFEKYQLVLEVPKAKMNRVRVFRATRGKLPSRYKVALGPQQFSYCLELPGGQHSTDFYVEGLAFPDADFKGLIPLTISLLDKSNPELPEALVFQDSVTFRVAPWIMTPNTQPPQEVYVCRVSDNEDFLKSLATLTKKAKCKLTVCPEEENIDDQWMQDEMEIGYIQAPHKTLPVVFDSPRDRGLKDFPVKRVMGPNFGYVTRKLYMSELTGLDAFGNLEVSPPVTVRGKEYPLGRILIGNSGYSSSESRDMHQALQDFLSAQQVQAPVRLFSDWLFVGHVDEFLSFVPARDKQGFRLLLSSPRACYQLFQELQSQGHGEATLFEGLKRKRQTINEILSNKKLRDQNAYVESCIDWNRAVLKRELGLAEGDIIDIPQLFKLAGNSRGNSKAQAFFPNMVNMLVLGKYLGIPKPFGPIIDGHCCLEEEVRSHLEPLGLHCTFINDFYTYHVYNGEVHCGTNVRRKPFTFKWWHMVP

[3] = target: T1, human protein arginine deiminase 4 …; assay: BLI; binding of the functional human antibodies to PAD4, PAD2 and PAD3; who was immobilised and the antibody format are not told for this experiment; conditions: both partners purified
PAD2 = target: T3, PAD2 (Homo sapiens (assumed), UniProt Q9Y2J8); assay: as above; conditions: both partners purified
T3 construct: PAD2, commercially available; also called protein arginine deiminase 2
T3 sequence (Q9Y2J8 whole entry): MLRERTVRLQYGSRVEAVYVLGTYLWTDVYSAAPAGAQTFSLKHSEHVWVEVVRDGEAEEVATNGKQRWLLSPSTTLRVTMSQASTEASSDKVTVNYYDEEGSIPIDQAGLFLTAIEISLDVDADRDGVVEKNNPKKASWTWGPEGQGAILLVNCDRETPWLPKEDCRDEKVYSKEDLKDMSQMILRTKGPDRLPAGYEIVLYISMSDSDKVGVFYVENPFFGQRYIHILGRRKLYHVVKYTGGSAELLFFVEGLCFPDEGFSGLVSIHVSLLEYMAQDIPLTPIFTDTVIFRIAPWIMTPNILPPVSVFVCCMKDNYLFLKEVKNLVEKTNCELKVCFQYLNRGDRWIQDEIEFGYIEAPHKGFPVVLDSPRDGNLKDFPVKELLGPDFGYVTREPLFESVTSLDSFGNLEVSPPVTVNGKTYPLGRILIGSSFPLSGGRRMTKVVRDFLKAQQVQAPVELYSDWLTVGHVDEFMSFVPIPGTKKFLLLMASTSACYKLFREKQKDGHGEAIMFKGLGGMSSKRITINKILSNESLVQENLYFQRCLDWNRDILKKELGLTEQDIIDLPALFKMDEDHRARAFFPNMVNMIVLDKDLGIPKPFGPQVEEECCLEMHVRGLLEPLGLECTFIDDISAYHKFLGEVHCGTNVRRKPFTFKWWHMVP

[4] = target: T1, human protein arginine deiminase 4 …; assay: BLI; Octet RED384; biotinylated hPAD4 on streptavidin biosensors, antibody (IgG by the legend) as analyte; TBSTB; 2 and 10 mM Ca2+; 1:1 monovalent model; conditions: both partners purified
[5] = target: T2, mouse protein arginine deiminase 4 …; assay: BLI; Octet RED384; biotinylated mPAD4 on streptavidin biosensors, antibody as analyte; TBSTB; calcium-free form of mPAD4; conditions: both partners purified
hPAD4 R8E = target: T4, hPAD4 R8E (human, UniProt Q9UM07, R8E); assay: BLI; Octet RED384; biotinylated hPAD4 (WT or mutant) on streptavidin biosensors, purified binder as analyte; TBSTB; calcium concentration not told for these experiments; 1:1 monovalent model; conditions: both partners purified
T4 construct: Protein arginine deiminase 4, human, point mutant; Mutant of the hPAD4 construct m1; source: cloned and expressed as hPAD4 (E. coli, Ni-NTA)
T4 sequence (Q9UM07 whole entry R8E): as the sequence (Q9UM07 whole entry, the tested form may be a part) above, with R8E counted along it

hPAD4 Y435A = target: T5, hPAD4 Y435A (human, UniProt Q9UM07, Y435A); assay: as above; conditions: both partners purified
T5 construct: Protein arginine deiminase 4, human, point mutant; Mutant of the hPAD4 construct m1; source: cloned and expressed as hPAD4 (E. coli, Ni-NTA)
T5 sequence (Q9UM07 whole entry Y435A): as the sequence (Q9UM07 whole entry, the tested form may be a part) above, with Y435A counted along it

[6] = target: T6, hPAD4 R8E–Y435A double mutant (human, UniProt Q9UM07, R8E | Y435A); assay: as above; conditions: both partners purified
T6 construct: Protein arginine deiminase 4, human, double mutant; Mutant of the hPAD4 construct m1; also called R8E/Y435 double mutant; source: cloned and expressed as hPAD4 (E. coli, Ni-NTA)
T6 sequence (Q9UM07 whole entry R8E/Y435A): as the sequence (Q9UM07 whole entry, the tested form may be a part) above, with R8E, Y435A counted along it

[7] = target: T1, human protein arginine deiminase 4 …; assay: cell-based or functional assay
PAD3 = target: T7, PAD3 (Homo sapiens (assumed), UniProt Q9ULW8); assay: BLI; binding of the functional human antibodies to PAD4, PAD2 and PAD3; who was immobilised and the antibody format are not told for this experiment; conditions: both partners purified
T7 construct: PAD3, commercially available; also called protein arginine deiminase 3
T7 sequence (Q9ULW8 whole entry): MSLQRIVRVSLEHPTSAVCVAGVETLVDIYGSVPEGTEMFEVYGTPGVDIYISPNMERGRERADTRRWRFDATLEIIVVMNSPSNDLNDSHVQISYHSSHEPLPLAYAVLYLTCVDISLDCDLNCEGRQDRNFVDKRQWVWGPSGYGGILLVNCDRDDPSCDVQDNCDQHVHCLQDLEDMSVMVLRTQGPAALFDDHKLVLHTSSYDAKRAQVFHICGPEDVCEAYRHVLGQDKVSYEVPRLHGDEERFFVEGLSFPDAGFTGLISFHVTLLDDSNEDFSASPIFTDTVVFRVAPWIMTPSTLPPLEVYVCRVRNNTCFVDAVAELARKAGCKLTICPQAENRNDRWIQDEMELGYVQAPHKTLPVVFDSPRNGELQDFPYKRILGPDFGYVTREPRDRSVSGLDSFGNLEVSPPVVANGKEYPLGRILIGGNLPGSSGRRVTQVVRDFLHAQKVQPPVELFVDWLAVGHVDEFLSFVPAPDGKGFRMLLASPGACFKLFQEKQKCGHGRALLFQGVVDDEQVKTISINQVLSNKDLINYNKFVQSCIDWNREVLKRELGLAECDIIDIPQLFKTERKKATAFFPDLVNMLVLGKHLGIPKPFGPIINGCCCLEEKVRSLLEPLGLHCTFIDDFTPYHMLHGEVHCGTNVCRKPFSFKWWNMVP

[8] = target: T1, human protein arginine deiminase 4 …; assay: BLI; Octet RED384; biotinylated hPAD4 (WT or mutant) on streptavidin biosensors, purified binder as analyte; TBSTB; calcium concentration not told for these experiments; 1:1 monovalent model; conditions: both partners purified

B1: hI281 Fab (Fab, V domains shown)
VH: EVQLVESGGGLVQPGGSLRLSCAASGFNVSYSSIHWVRQAPGKGLEWVASIYPYYGSTSYADSVKGRFTISADTSKNTAYLQMNSLRAEDTAVYYCARQMYYWMFSKLALDYWGQGTLVTVSS
VL: DIQMTQSPSSLSASVGDRVTITCRASQSVSSAVAWYQQKPGKAPKLLIYSASSLYSGVPSRFSGSRSGTDFTLTISSLQPEDFATYYCQQSYYRTLFTFGQGTKVEIK
notes: Fab heavy chain of hI281; light chain of hI281; From synthetic Fab-phage library E (4D5-type scaffold); also called Fab-hI281; source: E. coli C43 (DE3) Pro+, purified (Ni-NTA)
[1]
  binding result: binds

B2: mA342-c3 (antibody, V domains shown)
VH: EVQLVESGGGLVQPGGSLRLSCAASGFNVYSSSIHWVRQAPGKGLEWVASISSSSGYTYYADSVKGRFTISADTSKNTAYLQMNSLRAEDTAVYYCARYSASIYYYSGYPAYHAGLDYWGQGTLVTVSS
VL: DIQMTQSPSSLSASVGDRVTITCRASQSVSSAVAWYQQKPGKAPKLLIYSASSLYSGVPSRFSGSRSGTDFTLTISSLQPEDFATYYCQQWSYSRLATFGQGTKVEIK
notes: as the heavy chain of m20 with the stated changes; as the light chain of m20 with the stated change; The text names it mA342-c3, the legends mA342-c4
[2]
  binding result: binds

B3: hA288 Fab (Fab, V domains shown)
VH: EVQLVESGGGLVQPGGSLRLSCAASGFNVYYSSIHWVRQAPGKGLEWVASIYSYSGSTSYADSVKGRFTISADTSKNTAYLQMNSLRAEDTAVYYCARYWPKMAGYWYIYRFALDYWGQGTLVTVSS
VL: DIQMTQSPSSLSASVGDRVTITCRASQSVSSAVAWYQQKPGKAPKLLIYSASSLYSGVPSRFSGSRSGTDFTLTISSLQPEDFATYYCQQYRQYNLITFGQGTKVEIK
notes: Fab heavy chain of hA288; light chain of hA288; source: E. coli C43 (DE3) Pro+, purified (Ni-NTA)
[1]
  binding result: binds

B4: hA362 IgG (antibody, V domains shown)
VH: EVQLVESGGGLVQPGGSLRLSCAASGFNVSYYSIHWVRQAPGKGLEWVASISPYYGSTYYADSVKGRFTISADTSKNTAYLQMNSLRAEDTAVYYCARHPYRKGYSGLDYWGQGTLVTVSS
VL: DIQMTQSPSSLSASVGDRVTITCRASQSVSSAVAWYQQKPGKAPKLLIYSASSLYSGVPSRFSGSRSGTDFTLTISSLQPEDFATYYCQQSSYLPLFTFGQGTKVEIK
notes: heavy chain of hA362 fused to hIgG1-Fc (pFUSE-hIgG1-Fc); as the light chain of m13; IgG1; source: Expi293, transiently cotransfected, purified (protein A or Ni-NTA); copies: 2 + 2
[3]
  binding result: binds
PAD2
  binding result: no binding

B5: hI281 IgG (antibody, V domains shown)
VH: EVQLVESGGGLVQPGGSLRLSCAASGFNVSYSSIHWVRQAPGKGLEWVASIYPYYGSTSYADSVKGRFTISADTSKNTAYLQMNSLRAEDTAVYYCARQMYYWMFSKLALDYWGQGTLVTVSS
VL: DIQMTQSPSSLSASVGDRVTITCRASQSVSSAVAWYQQKPGKAPKLLIYSASSLYSGVPSRFSGSRSGTDFTLTISSLQPEDFATYYCQQSYYRTLFTFGQGTKVEIK
notes: heavy chain of hI281 fused to hIgG1-Fc (pFUSE-hIgG1-Fc); as the light chain of m10; IgG1; source: Expi293, transiently cotransfected, purified (protein A or Ni-NTA); copies: 2 + 2
[4]
  binding result: binds

B6: mA342 IgG (antibody, V domains shown)
VH: EVQLVESGGGLVQPGGSLRLSCAASGFNVYSSSIHWVRQAPGKGLEWVASISSSSGYTYYADSVKGRFTISADTSKNTAYLQMNSLRAEDTAVYYCARYSYSIYYYSGYPYYHMGLDYWGQGTLVTVSS
VL: DIQMTQSPSSLSASVGDRVTITCRASQSVSSAVAWYQQKPGKAPKLLIYSASSLYSGVPSRFSGSRSGTDFTLTISSLQPEDFATYYCQQWSYSRLITFGQGTKVEIK
notes: heavy chain of mA342 fused to hIgG1-Fc (pFUSE-hIgG1-Fc); light chain of mA342; also called WT mA342; source: Expi293, transiently cotransfected, purified (protein A or Ni-NTA); copies: 2 + 2
[5]
  Kd: 200000 nM
[2]
  Kd: < 1 nM

B7: hA362 Fab (Fab, V domains shown)
VH: EVQLVESGGGLVQPGGSLRLSCAASGFNVSYYSIHWVRQAPGKGLEWVASISPYYGSTYYADSVKGRFTISADTSKNTAYLQMNSLRAEDTAVYYCARHPYRKGYSGLDYWGQGTLVTVSS
VL: DIQMTQSPSSLSASVGDRVTITCRASQSVSSAVAWYQQKPGKAPKLLIYSASSLYSGVPSRFSGSRSGTDFTLTISSLQPEDFATYYCQQSSYLPLFTFGQGTKVEIK
notes: Fab heavy chain of hA362; light chain of hA362; also called Fab hA362; source: E. coli C43 (DE3) Pro+, purified (Ni-NTA)
[1]
  binding result: binds
hPAD4 R8E
  fold decrease of binding affinity against WT hPAD4: ~3 fold
hPAD4 Y435A
  fold decrease of binding affinity against WT hPAD4: ~10 fold
[6]
  fold decrease of binding affinity against WT hPAD4: ~160 fold

B8: E3 (affinity-matured variant of hI365) (antibody, V domains shown)
VH: EVQLVESGGGLVQPGGSLRLSCAASGFNFFYSIHWVRQAPGKGLEWVASISPYTDYTSYADSVKGRFTISADTSKNTAYLQMNSLRAEDTAVYYCARKHPGSYPFWGFALDYWGQGTLVTVSS
VL: DIQMTQSPSSLSASVGDRVTITCRASQSVSSAVAWYQQKPGKAPKLLIYSASSLYSGVPSRFSGSRSGTDFTLTISSLQPEDFATYYCQQSSSSLVTFGQGTKVEIK
[7]
  IC50 of PAD4 inhibition: 94 nM
  IC50 of inhibition of PAD4 citrullination of histone H3 (western blot): 95 nM

B9: hI364 IgG (antibody, V domains shown)
VH: EVQLVESGGGLVQPGGSLRLSCAASGFNVYSSSIHWVRQAPGKGLEWVASISSSSGSTSYADSVKGRFTISADTSKNTAYLQMNSLRAEDTAVYYCARYSDHYYYWSYWSSWYSGLDYWGQGTLVTVSS
VL: DIQMTQSPSSLSASVGDRVTITCRASQSVSSAVAWYQQKPGKAPKLLIYSASSLYSGVPSRFSGSRSGTDFTLTISSLQPEDFATYYCQQSSSSLITFGQGTKVEIK
notes: heavy chain of hI364 fused to hIgG1-Fc (pFUSE-hIgG1-Fc); light chain of hI364; The activity screen and the selection were done with the Fab form; source: Expi293, transiently cotransfected, purified (protein A or Ni-NTA); copies: 2 + 2
[4]
  Kd: 0.64 nM

B10: E6 (affinity-matured variant of hI365) (antibody, V domains shown)
VH: EVQLVESGGGLVQPGGSLRLSCAASGFNFYYSIHWVRQAPGKGLEWVASISPYTDRTSYADSVKGRFTISADTSKNTAYLQMNSLRAEDTAVYYCARKHPGRYPNWGFALDYWGQGTLVTVSS
VL: DIQMTQSPSSLSASVGDRVTITCRASQSVSSAVAWYQQKPGKAPKLLIYSASSLYSGVPSRFSGSRSGTDFTLTISSLQPEDFATYYCQQSMSSQLVTFGQGTKVEIK
notes: variant of the heavy chain of hI365 from soft-randomisation libraries; variant of the light chain of hI365; CDR L3 of ten amino acids; also called clone E6
PAD3
  binding result: no binding
[7]
  IC50 of inhibition of PAD4 citrullination of histone H3 (western blot): 13 nM

B11: hI365 IgG (antibody, V domains shown)
VH: EVQLVESGGGLVQPGGSLRLSCAASGFNFYYSIHWVRQAPGKGLEWVASISPYSGYTSYADSVKGRFTISADTSKNTAYLQMNSLRAEDTAVYYCARKHPGSYPFWGWALDYWGQGTLVTVSS
VL: DIQMTQSPSSLSASVGDRVTITCRASQSVSSAVAWYQQKPGKAPKLLIYSASSLYSGVPSRFSGSRSGTDFTLTISSLQPEDFATYYCQQSSSSLVTFGQGTKVEIK
notes: heavy chain of hI365 fused to hIgG1-Fc (pFUSE-hIgG1-Fc); as the light chain of m16; also called WT hI365; source: Expi293, transiently cotransfected, purified (protein A or Ni-NTA); copies: 2 + 2
[4]
  Kd: 1.2 nM

B12: hI365 G58D (antibody, V domains shown)
VH: EVQLVESGGGLVQPGGSLRLSCAASGFNFYYSIHWVRQAPGKGLEWVASISPYSDYTSYADSVKGRFTISADTSKNTAYLQMNSLRAEDTAVYYCARKHPGSYPFWGWALDYWGQGTLVTVSS
VL: DIQMTQSPSSLSASVGDRVTITCRASQSVSSAVAWYQQKPGKAPKLLIYSASSLYSGVPSRFSGSRSGTDFTLTISSLQPEDFATYYCQQSSSSLVTFGQGTKVEIK
notes: as the heavy chain of hI365 with the stated change; as the light chain of hI365; also called mutant G58D
[8]
  binding result: binds
